No end group written: not given here.
T1: soluble extracellular domain of human α-Klotho (aa 1-980) fused to a 6xHis tag (human, UniProt Q9UEF7 34-980)
T1 construct: Secreted from HEK293 EBNA cells; also called sKLA; soluble α-Klotho
T1 sequence: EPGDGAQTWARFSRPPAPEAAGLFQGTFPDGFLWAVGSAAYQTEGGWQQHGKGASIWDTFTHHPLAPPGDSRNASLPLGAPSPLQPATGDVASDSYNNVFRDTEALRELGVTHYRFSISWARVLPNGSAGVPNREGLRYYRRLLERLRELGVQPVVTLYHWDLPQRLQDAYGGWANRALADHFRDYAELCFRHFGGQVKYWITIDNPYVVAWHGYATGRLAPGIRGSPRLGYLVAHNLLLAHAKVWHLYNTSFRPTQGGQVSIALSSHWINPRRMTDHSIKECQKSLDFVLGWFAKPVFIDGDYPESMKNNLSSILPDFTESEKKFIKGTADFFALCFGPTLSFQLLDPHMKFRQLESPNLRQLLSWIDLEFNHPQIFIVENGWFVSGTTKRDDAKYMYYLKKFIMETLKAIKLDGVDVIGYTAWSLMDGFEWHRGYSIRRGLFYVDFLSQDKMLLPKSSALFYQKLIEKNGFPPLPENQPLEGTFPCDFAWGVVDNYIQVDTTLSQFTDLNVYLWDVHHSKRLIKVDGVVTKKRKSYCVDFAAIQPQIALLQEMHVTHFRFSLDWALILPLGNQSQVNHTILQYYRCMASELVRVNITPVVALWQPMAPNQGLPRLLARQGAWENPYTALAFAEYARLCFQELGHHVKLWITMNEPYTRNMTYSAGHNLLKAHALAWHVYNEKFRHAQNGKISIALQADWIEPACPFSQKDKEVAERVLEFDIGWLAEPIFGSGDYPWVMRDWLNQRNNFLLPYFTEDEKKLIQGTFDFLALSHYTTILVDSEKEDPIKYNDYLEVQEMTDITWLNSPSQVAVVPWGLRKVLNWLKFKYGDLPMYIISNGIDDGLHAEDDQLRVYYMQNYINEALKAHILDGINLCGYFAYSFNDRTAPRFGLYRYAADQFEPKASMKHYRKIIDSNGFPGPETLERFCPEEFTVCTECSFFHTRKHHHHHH

T2: full-length human α-Klotho with a C-terminal HA-tag on HEK293 cells stably co-expressing FGFR1c (human) (UniProt Q9UEF7)
T2 sequence: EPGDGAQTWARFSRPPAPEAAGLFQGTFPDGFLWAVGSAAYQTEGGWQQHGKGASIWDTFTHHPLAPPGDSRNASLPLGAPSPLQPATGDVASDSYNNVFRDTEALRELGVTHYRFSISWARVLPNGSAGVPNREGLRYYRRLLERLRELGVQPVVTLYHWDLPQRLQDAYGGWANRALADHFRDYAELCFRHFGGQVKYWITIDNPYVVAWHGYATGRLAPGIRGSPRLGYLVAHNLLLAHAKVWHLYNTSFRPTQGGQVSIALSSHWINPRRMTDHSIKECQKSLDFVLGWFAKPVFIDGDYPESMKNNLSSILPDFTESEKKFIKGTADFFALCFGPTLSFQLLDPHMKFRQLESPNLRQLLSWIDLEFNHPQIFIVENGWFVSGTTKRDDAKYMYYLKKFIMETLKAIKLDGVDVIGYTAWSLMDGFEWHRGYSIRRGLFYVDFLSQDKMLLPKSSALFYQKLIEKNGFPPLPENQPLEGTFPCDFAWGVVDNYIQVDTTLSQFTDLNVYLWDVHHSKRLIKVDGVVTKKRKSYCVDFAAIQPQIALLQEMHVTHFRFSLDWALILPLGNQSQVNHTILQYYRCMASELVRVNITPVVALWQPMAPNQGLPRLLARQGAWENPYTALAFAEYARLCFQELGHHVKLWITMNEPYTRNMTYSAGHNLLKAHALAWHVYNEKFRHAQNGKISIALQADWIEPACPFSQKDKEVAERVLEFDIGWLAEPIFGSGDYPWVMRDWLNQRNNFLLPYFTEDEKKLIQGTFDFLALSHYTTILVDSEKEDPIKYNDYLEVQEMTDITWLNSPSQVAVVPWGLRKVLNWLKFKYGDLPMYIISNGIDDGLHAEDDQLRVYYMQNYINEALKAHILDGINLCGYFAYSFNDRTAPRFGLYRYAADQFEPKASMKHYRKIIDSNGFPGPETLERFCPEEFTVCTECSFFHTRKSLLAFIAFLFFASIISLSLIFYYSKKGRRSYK


What follows are binders tested against T1, soluble extracellular domain of human … (assay: BLI (Octet); GST fusion captured on anti-GST biosensor, sKLA in solution at 6.25-200 nM, 1:1 fit, mean ± S.D. of 3 experiments).
Experimental: Kinetic parameters and dissociation constants of sKLA binding to the various forms of full length FGF23 or GST-fused C-terminal fragments of FGF23 were studied using Bio-Layer Interferometry (BLI). Octet RED96 system (Pall ForteBio) equipped with anti-mouse IgG Fc (AMC) biosensors was used to study interactions between α-Klotho and FLAG-tagged FGF23. Biosensor tips were loaded with anti-FLAG M2 antibody (Millipore Sigma) at 5 μg/ml for 2 min, washed in BLI buffer (25 mM HEPES, 150 mM NaCl, pH 7.5, 0.002% Tween-20, 1 mg/mL BSA) for 60 s, and then loaded with FLAG-tagged FGF23 at 5 μg/ml for 4 min. Alternatively, anti-GST biosensor tips were loaded with 5 ug/ml GST fused with various FGF23 C-terminal fragments for 15 s. Subsequently, ligand-loaded sensor tips were dipped into microplate wells containing different sKLA concentrations, ranging from 6.25 nM to 200 nM in 2-fold dilutions of BLI buffer. After each binding cycle the sensor tips were regenerated with 10 mM glycine (pH 1.5). The collected data were referenced using a parallel buffer control subtraction, and sensograms were fitted globally to a 1:1 Langmuir binding model using ForteBio Data Analysis 10.0 software provided by the manufacturer.
To examine the significance of each of the two FGF23 repeats in α-Klotho binding and receptor activation, bio-layer interferometry (BLI) analyses was applied to measure the kinetic parameters and dissociation constants of each repeat alone or the entire C-terminal tail of FGF23 towards sKLA. To that end, GST-fusion proteins expressing either full length (FL) tail of FGF23 (amino acids […]), the first repeat R1 (amino acids S180-S205), or the second repeat R2 (amino acids […]) were produced in E. coli (FIG. 6) and immobilized on BLI sensors. sKLA was produced in HEK293 EBNA cells and used as an analyte in the BLI measurements (see elsewhere herein).

Row | Kd [nM] | koff [s⁻¹] | kon [M⁻¹ s⁻¹] | Binder
1 | 17 | 0.0034 | 200000 | SAEDNSPMASDPLGVVRGGRVNTHAGGTGPEG (other, not fully specified; also: fused to glutathione S-transferase (pGEX4T1), vector linker residues not given here, The plasmid limits are used here; also called GST-R2; not shown: glutathione S-transferase encoded by the pGEX4T1 vector (GE Healthcare)) [GST fusion of repeat 2 (R2) of the human FGF23 C-terminal tail]
2 | 15 | 0.0031 | 210000 | GST fusion of the full-length C-terminal tail of human FGF23 (aa 180-251) (other, Expressed in E. coli BL21-Gold (DE3); also called GST-FL; FL tail of FGF23; not shown: glutathione S-transferase encoded by the pGEX4T1 vector (GE Healthcare)) SAEDDSERDPLNVLKPRARMTPAPASCSQELPSAEDNSPMASDPLGVVRGGRVNTHAGGTGPEGCRPFAKFI
3 | 20 | 0.0041 | 210000 | SAEDDSERDPLNVLKPRARMTPAPAS (other, also: GST fusion partner (recombinant, not part of given chain), Expressed in E. coli; also called GST-R1; not shown: glutathione S-transferase encoded by the pGEX4T1 vector (GE Healthcare)) [GST fusion of repeat 1 (R1, aa 180-205) of the human FGF23 C-terminal tail]

The binders below were run against T2, full-length human α-Klotho with a C-terminal HA-tag on HEK293 cells stably co-expressing FGFR1c (human) (assay: cell-based or functional assay).

Row | complete inhibition of FGF23-induced MAPK stimulation in HEK293 cells co-expressing α-Klotho and FGFR1c [nM] | Binder
4 | 100 to 250 | human IgG1 Fc fused to the full-length C-terminal tail of human FGF23 (aa 180-251) (Fc fusion, not shown: a dimerising Fc or GST) SAEDDSERDPLNVLKPRARMTPAPASCSQELPSAEDNSPMASDPLGVVRGGRVNTHAGGTGPEGCRPFAKFI
5 | 100 to 250 | {human IgG1 Fc (aa 223-449)}-SAEDNSPMASDPLGVVRGGRVNTHAGGTGPEG (Fc fusion, not shown: a dimerising Fc or GST, also: R2 given as aa 212-243 or S212-T239) [human IgG1 Fc fused to R2 of human FGF23]

Reference: patent publication US20240034762A1 (YALE UNIVERSITY, published 2024)
